Eight molecules from publication PMC9239094 (mBio, 2022) can be followed below.

The term stoichiometry N denotes the number of molecules, sites or subunits per partner or assembly.

Holding throughout (assay): cryo-EM structure; single-particle cryo-EM of the complex purified in LMNG (Strep-Tactin XT, then SEC); samples at A280 of 1 on Quantifoil Au R1.2/1.3 grids, blotted at 4°C; SthGldLM′ also with fluorinated octyl maltoside in buffer W (100 mM Tris-HCl pH 8.0, 150 mM NaCl, 1 mM EDTA) plus 0.01% LMNG
Data set [1] deals with Capnocytophaga canimorsus GldL (Capnocytophaga canimorsus).
Data set [2] deals with Schleiferia thermophila GldL (Schleiferia thermophila).
The target in data set [3] is Sphingobacterium wenxiniae GldL (Sphingobacterium wenxiniae).
Data set [4] concerns the molecule itself.

In the case of “Capnocytophaga canimorsus GldL (natural protein)”, the stoichiometry N in data set [1] worked out at 5.

For “Schleiferia thermophila GldL (natural protein)”, in data set [2], the stoichiometry N came to 5.

With “Sphingobacterium wenxiniae GldL (natural protein)”, in data set [3], the stoichiometry N came to 5.

B1: Porphyromonas gingivalis PorM′ (PorM truncated after the first periplasmic D1 domain, twin-Strep-tagged) (domain or fragment)
chain: MAVGSNGNANRQKMINLMYLVFIAMMALNVSSEVLDGFDKVDKSLTSSIDGSDKRNNLVLSELNTAYRTNPEKVKVWYERSLVLQKEADSLCTFIDDLKLAIARESDGKDAKVNDIRRKDNLDASSVVMLNPINGKGSTLRKEVDKFRELVATLMTDKAKLKLIEQALNTESGTKGKSWESSLFENMPTVAAITLLTKLQSDVRYAQGEVLADLVKSVDVGDYRVNS
On to B1, for which, in data set [4], the “stoichiometry N” value turned out to be 2.

B2: Schleiferia thermophila GldM′ (GldM truncated after the first periplasmic D1 domain, twin-Strep-tagged) (domain or fragment)
chain: MAQGKLSPRQRMINMMYLVLTALLALNISKDILEALTKLNEDLSSTVMTVEKKLAFIYQAFDLAASENPEKAGVWRDKAYEVKKQADELHNYLEGIKNDLIEITGGIDEKTNRPKGLDNREKVANYLLVNEGGKAREIRARLEQFRDNMKQYVDEEAALINMLEALFNTEKKKVGDVMIEWENATFEHFPLAAVIPFITGIQANVRNAEADIISHLQRNIGKTDLKFTDENLYFQGQFGSWSHPQFEKGGGSGGGSGGGSWSHPQFEK
Take B2: in data set [4], the “stoichiometry N” value came out at 2.

B3: Sphingobacterium wenxiniae GldM′ (GldM truncated after the first periplasmic D1 domain, twin-Strep-tagged) (domain or fragment)
chain: MAGKKETPRQRMIGILYLVLLGLVALNVSDSILDAFKNLGNSLNTSTQNTQAGIDNMFLAFRETKLKENPERAQPILQKAEQAQALVQQLTSKVGELTTLLEGEGGGLDEETGDVKYRSSTDISARLMINEGRAKELREVITKTKAELLTLTNNEINLTLEAEDPAPRGGIKKTWEQANFGDGIPLTAAITALEKINADAKNAESAVVKHIFGKMDQAVVNLDQENLYFQGQFGSWSHPQFEKGGGSGGGSGGGSWSHPQFEK
For the molecule B3, in data set [4], the “stoichiometry N” value came out at 2.

B4: Porphyromonas gingivalis PorL (natural protein)
chain: MGHYRRYKNILEMYLASHKGRRLLNIVYSWGAAVVILGALFKLLHLPMGNEMLFVGMITEFLVFFISGFEKPAMEYHWEEVFPELDSKNPMDRREMEQRREYLREKAKEAAAYAERPSSVRLASASLGTQPQEQPKPATPFQSQLTGILPEEQIQRLSEGIDKLAEAGEQLARIGRTAAAMTESYEQMQADQEGLRLNSQSYIQQMESLSRNISGLNTIYEIQLKGISSQIDTIDRINRGLAHIRDMYDNSVIDSSSFRNENERMARQLTQLNEVYARLLQALTTNVGLPGMPGNFGASNPSSSGSSPL
In the case of B4, the “stoichiometry N” value in data set [4] is 5.

B5: Capnocytophaga canimorsus GldM″ (GldM truncated after the D2 periplasmic domain, twin-Strep-tagged) (domain or fragment)
chain: MAGGNSPRQKMINLMYLVFISMLALNMGKEVLSAFGLMNEKLEASNEKANNANINAIQALEQNNAENPDQFAEAFQKSKKVKELSDSFYNYIEGIKGEVMNQVGEDKKDYQVMDKSDYLDQKFFVGDNYKPEGEEFVRQINDYKTQLVELLGGKEGTYGELVGKIDGNFNTNDVVDREGVTRKWLNYNFEGFPYIASVAKLSMMQSDIRATEQEVYAEMLKGQLKSQISMTNYTTLLEQSKGAYYQGESFDGAIVLGRKDASTRPNEVELMLDGRKLSASEFQIEDGKVKLKVGAGNAGEHKITGNLYFDQDGKRIAVPVSQVFSTIPKPENLYFQGQFGSWSHPQFEKGGGSGGGSGGGSWSHPQFEK
For B5, in data set [4], the “stoichiometry N” value was 2.
